Test results as given in patent US20240392040A1 (AKESO HUIKE SHANGHAI, published 2024).

T1: human LAG3-mFc (human, UniProt P18627 23-450, limits assumed)
T1 construct: not shown: mouse IgG Fc (mFc)
T1 sequence (looked up): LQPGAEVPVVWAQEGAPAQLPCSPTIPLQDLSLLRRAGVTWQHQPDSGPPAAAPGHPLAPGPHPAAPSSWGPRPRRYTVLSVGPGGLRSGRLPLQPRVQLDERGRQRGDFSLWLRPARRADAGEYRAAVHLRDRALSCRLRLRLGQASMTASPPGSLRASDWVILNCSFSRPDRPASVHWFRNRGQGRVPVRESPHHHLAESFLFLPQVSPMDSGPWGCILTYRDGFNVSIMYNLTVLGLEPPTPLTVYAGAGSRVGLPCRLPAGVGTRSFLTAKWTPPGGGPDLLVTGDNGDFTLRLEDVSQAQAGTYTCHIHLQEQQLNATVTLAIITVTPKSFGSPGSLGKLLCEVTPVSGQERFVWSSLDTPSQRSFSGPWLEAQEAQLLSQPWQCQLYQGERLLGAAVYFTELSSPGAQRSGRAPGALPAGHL


Key:
human LAG3-mFc = molecular target: T1, human LAG3-mFc; experiment: indirect ELISA, coated human LAG3-mFc
Method: Then the ELISA plate coated with the antigen was washed once with PBST and then blocked with a PBS solution containing 1% BSA as a blocking solution at 37° C. for 2 h. After blocking, the ELISA plate was washed 3 times with PBST. The ELISA plate containing the test antibodies was incubated at 37° C. for 30 min and then washed 3 times with PBST. […] After incubation, the plate was washed 4 times with PBST, TMB (Neogen, 308177) was added for chromogenesis in the dark for 5 min, and then a stop solution was added to terminate the chromogenic reaction. The ELISA plate was put into an ELISA plate reader immediately, and the OD value of each well in the ELISA plate was read at 450 nm. The data were analyzed and processed by SoftMax Pro 6.2.1.

human PD-1-mFc = molecular target: T2, human PD-1-mFc (human, UniProt Q15116 25-170, limits assumed); experiment: indirect ELISA, coated human PD-1-mFc
T2 construct: not shown: mouse IgG Fc (mFc)
T2 sequence (Q15116 25-170 limits assumed): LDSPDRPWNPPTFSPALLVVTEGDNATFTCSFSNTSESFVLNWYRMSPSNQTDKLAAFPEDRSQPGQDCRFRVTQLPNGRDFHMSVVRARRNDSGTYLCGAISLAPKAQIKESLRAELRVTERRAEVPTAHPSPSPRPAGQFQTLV
Method: Then the ELISA plate coated with the antigen was washed once with PBST and then blocked with a PBS solution containing 1% BSA as a blocking solution at 37° C. for 2 h. After blocking, the ELISA plate was washed 3 times with PBST. The ELISA plate containing the test antibodies was incubated at 37° C. for 30 min and then washed 3 times with PBST.
After incubation, the plate was washed 4 times with PBST, TMB (Neogen, 308177) was added for chromogenesis in the dark for 5 min, and then a stop solution was added to terminate the chromogenic reaction. The ELISA plate was put into an ELISA plate reader immediately, and the OD value of each well in the ELISA plate was read at 450 nm. The data were analyzed and processed by SoftMax Pro 6.2.1.

human PD-1-mFc-Biotin = molecular target: T3, human PD-1-mFc-Biotin (human, UniProt Q15116 25-170, limits assumed, biotin label (site not stated)); experiment: competitive ELISA, blocking of PD-1-mFc-Biotin binding to coated human PDL1-mFc
T3 construct: not shown: mouse IgG Fc (mFc)
T3 sequence (Q15116 25-170 limits assumed): as above
Method: After incubation, the ELISA plate was blocked with a PBS solution containing 1% BSA at 37° C. for 2 h. After blocking, the plate was washed three times and dried. The antibody was serially diluted on a dilution plate in a 3-fold dilution ratio to achieve 7 concentrations with 80 nM as the starting concentration (at a final concentration of 40 nM), and a blank control was set. […] Then the mixture was incubated at room temperature for 10 min. Then the mixture after reaction was added to the coated ELISA plate, and the ELISA plate was incubated at 37° C. for 30 min. After incubation, the plate was washed three times with PBST and dried. An SA-HRP (KPL, 14-30-00) working solution was added, and the plate was incubated at 37° C. for 30 min. After incubation, the plate was washed four times and dried. Then TMB (Neogen, 308177) was added in the dark for chromogenesis for 5 min, and then a stop solution was added to terminate the chromogenic reaction. The ELISA plate was put into an ELISA plate reader immediately, and the OD value of each well in the ELISA plate was read at 450 nm. The data were analyzed and processed by SoftMax Pro 6.2.1.

[1] = molecular target: T4, PD-1 on 293T-PD1 membrane surface (full-length human PD-1 on cells) (human, UniProt Q15116 25-288); experiment: flow cytometry on 293T-PD1 cells
T4 construct: whole, on cells; the Promega PD-1 effector cells are bought; also called CHO-K1-PD1 cells
T4 sequence (Q15116 25-288): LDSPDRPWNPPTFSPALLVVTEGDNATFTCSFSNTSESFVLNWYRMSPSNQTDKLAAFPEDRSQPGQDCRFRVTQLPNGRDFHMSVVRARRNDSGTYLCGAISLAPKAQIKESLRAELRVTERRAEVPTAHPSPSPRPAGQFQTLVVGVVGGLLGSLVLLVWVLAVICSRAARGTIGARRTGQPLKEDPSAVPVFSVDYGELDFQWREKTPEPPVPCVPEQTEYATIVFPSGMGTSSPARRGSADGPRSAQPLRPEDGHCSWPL
Method: 100 μL of 1% PBSA was then added to each well, and the mixture was centrifuged at 350×g for 5 min, followed by removal of the supernatant. […] The mixture was mixed gently and uniformly, and then incubated on ice for 1 h. 100 μL of 1% PBSA was added to each well, and the mixture was centrifuged at 350×g for 5 min, followed by removal of the supernatant. Then the plate was washed twice with 200 μL of 1% PBSA. […] The mixture was mixed well and then incubated on ice in the dark for 0.5 h. 100 μL of 1% PBSA was added to each well, and the mixture was centrifuged at 350×g for 5 min, followed by removal of the supernatant. Then the plate was washed twice with 200 μL of 1% PBSA. 400 μL of 1% PBSA was added to each well to resuspend the cell pellets, and the mixture was transferred to a flow cytometry tube for FACSCalibur assay.

[2] = molecular target: T4, PD-1 on 293T-PD1 membrane surface …; experiment: competitive flow cytometry on 293T-PD1 cells, competitor PDL-1-mFc 20 nM
Method: 1. […] 100 μL of 1% PBSA was then added to each well, and the mixture was centrifuged and washed. […] 100 μL of a 400-fold diluted FITC goat anti-mouse IgG/IgM antibody (BD, Cat. No. 555988) was added, while 100 μL of 1% PBSA was added for a blank sample. The mixture was mixed well, incubated on ice in the dark for 30 min, washed, and centrifuged. The cells were resuspended and then transferred to a sample loading tube for testing on a flow cytometer.

EC50 (human LAG3-mFc) [nM]	EC50 (human PD-1-mFc) [nM]	EC50 (human PD-1-mFc-Biotin) [nM]	EC50 [1] [nM]	EC50 [2] [nM]	Binder
0.377	0.046	2.98	–	–	BS-PL023C (bispecific antibody, human IgG1, kappa, Morrison form (IgG-scFv): an scFv at the C-terminus of each of the two heavy chains) heavy: not shown light: DIQMTQSPSSMSASVGDRVTFTCRASQDINTYLSWFQQKPGKSPKTLIYRANRLVSGVPSRFSGSGSGQDYTLTISSLQPEDMATYYCLQYDEFPLTFGAGTKLELKRTVAAPSVFIFPPSDEQLKSGTASVVCLLNNFYPREAKVQWKVDNALQSGNSQESVTEQDSKDSTYSLSSTLTLSKADYEKHKVYACEVTHQGLSSPVTKSFNRGEC
0.685	0.103	5.04	6.87	–	Bs-PLV02 (bispecific antibody, human IgG4 S228P, kappa, F234A L235A, Morrison form (IgG-scFv): an scFv at the C-terminus of each of the two heavy chains) heavy: not shown light: DIQMTQSPSSMSASVGDRVTFTCRASQDINTYLSWFQQKPGKSPKTLIYRANRLVSGVPSRFSGSGSGQDYTLTISSLQPEDMATYYCLQYDEFPLTFGAGTKLELKRTVAAPSVFIFPPSDEQLKSGTASVVCLLNNFYPREAKVQWKVDNALQSGNSQESVTEQDSKDSTYSLSSTLTLSKADYEKHKVYACEVTHQGLSSPVTKSFNRGEC
–	0.02	2.61	5.35	2.51	14C12H1L1(hG1TM) (antibody, human IgG1, kappa, V domains shown, Humanized anti-PD-1 IgG1 with L234A, L235A, G237A (EU numbering)) VH: EVQLVESGGGLVQPGGSLRLSCAASGFAFSSYDMSWVRQAPGKGLDWVATISGGGRYTYYPDSVKGRFTISRDNSKNNLYLQMNSLRAEDTALYYCANRYGEAWFAYWGQGTLVTVSS VL: DIQMTQSPSSMSASVGDRVTFTCRASQDINTYLSWFQQKPGKSPKTLIYRANRLVSGVPSRFSGSGSGQDYTLTISSLQPEDMATYYCLQYDEFPLTFGAGTKLELKR
